Laboratory results taken from the DeepSol protein solubility set.

Assay: soluble on expression in E. coli; label from the status in PepcDB or PDB records

Question: Which “soluble on expression in E. coli” value does the source give for “MLNYLFENNCLLCGKEVSPLRSLCENCEEKVLKNGPSFYREVHRKYELFVYSDYTDEIERIIRLYKYHGEVSLSGTLVKLFLKLYSYFPREANLITWVPSSLDSLEDRGFDHMRLLAKRISKELGIPFDAVLENVSEGRQVEKSKEERKRTGRFICKKDPPQNVILIDDVLTTGTSVRDCVETLFRNGVSKVFVYVLAKTRR” here?
Answer: The value was “not soluble”.

Question: Which “soluble on expression in E. coli” value does the source give for “MSKLQQILTYLESEKLDVAVVSDPVTINYLTGFYSDPHERQMFLFVLADQEPLLFVPALEVERASSTVSFPVVGYVDSENPWQKIKHALPQLDFKRVAVEFDNLILTKYHGLKTVFETAEFDNLTPRIQRMRLIK” here?
Answer: The value was “soluble”.

Question: For “AHHHHHHGSVNIMDEIIVVTTPTIPGYKIIEVKGIARGGIVMATHLGRDILALLRNIKGGEVKEYTQMMAEAREEALRRMIEHAKKLGANAVVNFRFATSNVGGGMAEVYAYGTAVVVEREK”, which “soluble on expression in E. coli” value is on record?
Answer: Its value is “not soluble”.

Question: With “MPAFFVKAGAKKSGGGAAATRKRKNGGKSDAKSEEMAAKMSRRQKIMAATEIHSDEEDSLAGSAAASEAGSDVEYEDAHERNYREAKKLLDKIQSTTTTQEEVAEKLRDDAVARTGTQVKRVADVVELEDDLEISYKPHRLSPLCVAFSPDAKYVISCGKESSIVKFNVGTRKVVGIIKRTKKRAGVPEEPTNAHYGVIFTVAVSPDQKFIASGGFDQVVKAPKNMKILFQIWNFDSLEHIKDLSGHRGPIFSLTFQLKTNNLYSASQDRSVKMWDIDQLGLVDTMYGHQDGVQQIGVLSKQRVATVGGRDRSARLWKVEDESQLMFSGLQNCVSLDCVAMINEEHFATGSADGSIALWSFWKKRALHVRKQAHGTQNGSGRWIVALAVLPYSDLLASGSNEGELKLWKISENFRQLTPFFSYSIPGFINSINFAPNGKSIVVGAGKEHKDGRWWVDREARNQVVILPIKYTDGSDNNDVTIGDKTASGTVSGASAGGGGGIESGDESEEEEEELEEELEEEEEEIEE” as the sequence, how does the “soluble on expression in E. coli” value read?
Answer: The value was “not soluble”.

Question: Which “soluble on expression in E. coli” value does the source give for “MTTTPIADQAAVLAEGMADQTPSEALEAFGAEQAELDAAGVPSGIATAGSLMPDASLLDVHGNATTLQQVREGRPAVVVFYRGAWCPYCNLALRTYERELAPRLAERGVSMIAVSPQRPDGSLTMAQTNDLSYDVLSDPGNHIGRALGIVTRPTDRVQHAQASLGLDLTEVNADGTPDILMPTVAIVDAEGVLRWIDVHPNYVTRSEPARILEALARAVR” here?
Answer: Its value is “not soluble”.

Question: Which “soluble on expression in E. coli” value does the source give for “MRVDEFLKERNINVGDFVRITKEEDGEEVTYEGYIMPPYELSAGDTLVLKLENGYNIGIALEKIRRIEVLERAKVKPEVHFEALIEGKPGLPEVTIIGTGGTIASRIDYETGAVYPAFTAEELAKALPEIFEVANVKPKLLFNIFSEDMKPKHWVKIAHEVAKALNSGDYGVVVAHGTDTMGYTAAALSFMLRNLGKPVVLVGAQRSSDRPSSDAAMNLICSVRMATSEVAEVMVVMHGETGDTYCLAHRGTKVRKMHTSRRDAFRSINDVPIAKIWPNGEIEFLRKDYRKRSDEEVEVDDKIEEKVALVKVYPGISSEIIDFLVDKGYKGIVIEGTGLGHTPNDIIPSIERAVEEGVAVCMTSQCIYGRVNLNVYSTGRKLLKAGVIPCEDMLPETAYVKLMWVLGHTQNLEEVRKMMLTNYAGEITPYTRFDTYLR” here?
Answer: Its value is “soluble”.

Question: Which “soluble on expression in E. coli” value does the source give for “MSFQNQFTKTTTDANLMETVHHGSAEYPFRYYYENIALFDFKCIDWHWHSELEFIYIESGNVVFDIGTVHFELNEGNGIMINSKILHRLQSSSDAIIPNFLFQPSFIAPQDSLIYKKYINPVISSSLEYLVFQPDIPWQKKALEIIKTIIAVQETEFNREIIVSMSVQQLWILLLENLTFDQFENMGAVISRTRLQLMMQYVHAHYSENITLEDIARTANISKSTALHLFQNNLKLTPVKYLINYRLTQAALLLINTEEKIATISNNTGFNNVDHFCRTFKKTYKMTPTDYRNQERAPVS” here?
Answer: The value was “not soluble”.

Question: With “MSTRFRLSLALLTTLVLSACDDAPRFTHAEPGEALSGGSATVRKSDQNAFSMPSANLSPVRRLDFSVGNSFFRSPWVIAPSTTTARDGLGPLFNTNACQNCHIKDGRGHPPEAGDSNAVSMLVRLSIPDDPAYADLIRRNGVLPEPTYGGQLQDMSNPGVAPEGKVRVEYDALTVNFRDGTAVELRQPTLRITQLGYGPMHPETHISARIAPPMIGLGLLEAIADDAILANADPDDKNADGISGRPNWVWDDVQQKVVMGRFGWKAGQPNLNQQNVHAFSGDMGLTTSLRRVDDCTPAQTDCLVAPNGNGPDGEPEVSDNILRLVEFYTRNLGVPARRKVADPQVLAGKNLFFEAGCQQCHTPSFKTRSDAAQPELANQDIRPYSDLLLHDMGEGLADNRTEFQATGREWRTPPLWGLGLTETVSGHTQLLHDGRARNMLEAILWHGGEAQAAQRRVLAFDAEQREALLAFLNSL” as the sequence, how does the “soluble on expression in E. coli” value read?
Answer: Its value is “not soluble”.

Question: Which “soluble on expression in E. coli” value does the source give for “MFWRSIPSLQTLLAAGMGLLMLEIVMAHQPAQAESCTVDPFGSEVCLPDSTPEEPDKPKRSNQSKKSNKPDKSKRMVIVPSCFGPCTQFPPAPPYRQFQEVMEEAALKATPDATPEPRPAEPLRPLWFKSDQLDDVEAETYLERTLDRNDMAQLNAVGIEADTDADGMVITVDGLSYGEVLEPHGLLFTNEVNEPGLNAWVRGFGGGSSNGAAGDRYANFSNGGSQIGFDIPINDETRIGLFGTYAVMNGTDGARGSWDSDGWGGGAYAEYWTSDFYLRGMVSAGGYDGEHRRKIDGETAKGDRSGNSWTGVLNIGAPLQSGDWIIEPQAQLSYTNTSLDKFSEHGANRRDRLRFHEMEVDQLGSELSVKFAIPIRDGERSLLLPSLRVGWAADWGMSGDHQKVSYLESGKSQRWDVNGNDDHAALVELGLDYTTFNFQDTSMGVYARGGGLLWAGNRGTSWQVQGGLNFKF” here?
Answer: The value was “not soluble”.

Question: Which “soluble on expression in E. coli” value does the source give for “MGKRVVYPGTFDPPHYGHLDIVKRSARIFDEVVVAVAKKPRKFLLFDAEERVKMFEKMVEDIPNVEVKMFDCLLVDFMKREGINVIVRGVRLFTDFEYELQIALTNYKLAGVETVFMMPSQEYIHISSTIVRDVASYCGDLDNMVHPYVKQKLREKFNCGS” here?
Answer: The value was “soluble”.

Question: Which “soluble on expression in E. coli” value does the source give for “MNMQKLRIELGEETNDELYDLLLLADPSKDIVDEYLERGECYTAWAGDELAGVYVLLKTRPQTVEIVNIAVKESLQKKGFGKQLVLDAIEKAKKLGADTIEIGTGNSSIHQLSLYQKCGFRIQAIDHDFFLRHYDEDIFENGIQCRDMVRLYLDLLEHHHHHH” here?
Answer: The value was “soluble”.

Question: For “MGSDKIHHHHHHMRKIPPLRALQVFEAAARLQHFSRAAQELCITQSAVSHQVRLLEEHFALPLFRREGRSLRLTDKGEQLFQETARIFNELGELNLRLLGEKPEALRLAVYSSFAVKWLIPRLSGFRRLHPGIQVRLDMITEDPVLSHSSADMFITGQQDQKGYWQQLLHAERLIPVCSPELISSSDKLDLDWLSTQQLLTVDEGPLGLDWQRWFEHHRVAQPEEEQQQLFSHVLMAIEAAIAGQGVALASDFMVLDDIAKQRLVALPFAGIDTGFEFNFLCKQRRLQEPAIAAFVHWLTQQH”, which “soluble on expression in E. coli” value is on record?
Answer: The value was “not soluble”.

Question: Which “soluble on expression in E. coli” value does the source give for “RRQHQHLLESLVHSTAKQQGDFTKTAELATELLCQNLAVSLVSIWIFSADQGTQSLVAQFGSMALQDTYRPSLLHTVPRYLNELKNYRHIDAGNTLIDPRLTELVDSYFIPRQILSSLDVGIRINGHLEGVLCIERAQVTHHWHDSEIHLACQMADQLALTLATKHAYDKEERLSLFRCAIEQSRQMSM” here?
Answer: Its value is “not soluble”.

Question: Which “soluble on expression in E. coli” value does the source give for “MGSDKIHHHHHHMLKIELLESFIAVAECGNLSKAADKICRTQSTLSLQVKKLEESVGQTLLIRDNKGVTLTESGETLLNYAYKMMQLNSQAIDELKDCQNREVIRLGVPTDFIKCYLSSCLLEFIREFTSIELVIDTDVSGNLYKRLHQGEFDVIVATHWQVPTNGELLFTRRFKWVSAVEGNAHKRKTIPMGLYPENCPIRAQVFANHRLSMRPINVLLSTPSPQALCMAVENDLVIAPIAEFRITDQMQVLDPIEHGLPILPMFNESLYLNPDTQTYATLQLINLIKANVEHKGYQLD” here?
Answer: Its value is “not soluble”.

Question: For “MTEHKSGFVSIIGRPNVGKSTFVNRVIGHKIAIMSDKAQTTRNKIQGVMTRDDAQIIFIDTPGIHKPKHKLGDYMMKVAKNTLSEIDAIMFMVNANEEIGRGDEYIIEMLKNVKTPVFLVLNKIDLVHPDELMPKIEEYQSYMDFTEIVPISALEGLNVDHFIDVLKTYLPEGPKYYPDDQISDHPEQFVVGEIIREKILHLTSEEIPHAIGVNVDRMVKESEDRVHIEATIYVERDSQKGIVIGKGGKKLKEVGKRARRDIEMLLGSKVYLELWVKVQRDWRNKVNFIRQIGYVEDQD”, which “soluble on expression in E. coli” value is on record?
Answer: The value was “not soluble”.

Question: With “MGSDKIHHHHHHMIPEKKSIAIMKELSIGNTKQMLMINGVDVKNPLLLFLHGGPGTPQIGYVRHYQKELEQYFTVVHWDQRGSGLSYSKRISHHSMTINHFIKDTIQVTQWLLAHFSKSKLYLAGHSWGSILALHVLQQRPDLFYTYYGISQVVNPQDEESTAYQHIREISESKKASILSFLTRFIGAPPWKQDIQHLIYRFCVELTRGGFTHRHRQSLAVLFQMLTGNEYGVRNMHSFLNGLRFSKKHLTDELYRFNAFTSVPSIKVPCVFISGKHDLIVPAEISKQYYQELEAPEKRWFQFENSAHTPHIEEPSLFANTLSRHARNHL” as the sequence, how does the “soluble on expression in E. coli” value read?
Answer: The value was “not soluble”.

Question: With “MGSDKIHHHHHHMALPKKLKALNLFNNGESYLGQVVEVKLPTLSRKMEEYRGGGMNGPVDIDFGQEKIELEWKCGGMMRSVLNQYGATTHNAVQLRFAGSYQRDDSGAVDAVEFVVRGRHKEIDPGTGKSGDDTEFSVKTSASYYKLMINGSTVIEIDLMNMIEIVNGVDLLAPHRRAIGA” as the sequence, how does the “soluble on expression in E. coli” value read?
Answer: Its value is “not soluble”.

Question: With “MKGRWAKYVATGVMLAMLAACSSKPTDRGQQYKDGKFTQPFSLVNQPDAVGAPINAGDFAEQVDQIRSASPRLYTNQSNVYNAVQNWLRSGGDTRTMRQFGIDAWQMEGTDNYGNVQFTGYYTPVVQARHTRQGAFQYPIYSMPPKRGRLPSRAQIYAGALSDKYILAWSNSLMDNFIMDVQGSGYIDFGDGSPLNFFSYAGKNGWPYRSIGKVLIDRGEVKKEDMSMQAIREWGEKHSEAEVRELLEQNPSFVFFKPQSFAPVKGASAVPLIGRASVASDRSIIPPGTTLLAEVPLLDNNGKFSGQYELRLMVALDVGGAIKGQHFDIYQGIGPDAGHRAGWYNHYGRVWVLKSAPGAGNVFSG” as the sequence, how does the “soluble on expression in E. coli” value read?
Answer: The value was “soluble”.

Question: For “MIDMVVLTKEKIIEIIEEKTGMSREKIEEEIRRIMEEDPHLSEQGAAALLAERLGIDLIEREETSLMKISDLYPGMDPREVNIIGRVLKKYPVREYTKKDGSIGRVASLVIYDDSGRARVVLWDGKVAEYYNKIEVGDVIKVLDAQVRESLSGLPELHINFRARIILNPEDPRVDSIPPLEEVRIATYTRKKIGDIEPGDRFIEIRGTIAKVYRVLTYDACPECKKKVDYDPGTGVWICPEHGEVEPIKMTILDFGLDDGTGYIRVTLFGDDAEELLGVSSEEIAEKIKELENSGLTTKEAARKLAEEEFYKIIGKEIVVRGNVIEDRFLGLILRASSWEEVDYRKEIENIKEELEKLGVMLEHHHHHH”, which “soluble on expression in E. coli” value is on record?
Answer: Its value is “not soluble”.
